The values that follow come from patent publication US20220332804A1 (CSL INNOVATION, published 2022).

Test in all cases: SPR, antibody captured, C2 as analyte;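 further: biacore at 37 °C, anti-C2 mAbs held by immobilised goat anti-human IgG, C2 alanine or serine mutants injected, double-referenced sensorgrams fitted to a 1:1 kinetic or steady-state model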
For one assay, the target named is T1, human C2 I272A (human, UniProt P06681 21-752).
T1 sequence: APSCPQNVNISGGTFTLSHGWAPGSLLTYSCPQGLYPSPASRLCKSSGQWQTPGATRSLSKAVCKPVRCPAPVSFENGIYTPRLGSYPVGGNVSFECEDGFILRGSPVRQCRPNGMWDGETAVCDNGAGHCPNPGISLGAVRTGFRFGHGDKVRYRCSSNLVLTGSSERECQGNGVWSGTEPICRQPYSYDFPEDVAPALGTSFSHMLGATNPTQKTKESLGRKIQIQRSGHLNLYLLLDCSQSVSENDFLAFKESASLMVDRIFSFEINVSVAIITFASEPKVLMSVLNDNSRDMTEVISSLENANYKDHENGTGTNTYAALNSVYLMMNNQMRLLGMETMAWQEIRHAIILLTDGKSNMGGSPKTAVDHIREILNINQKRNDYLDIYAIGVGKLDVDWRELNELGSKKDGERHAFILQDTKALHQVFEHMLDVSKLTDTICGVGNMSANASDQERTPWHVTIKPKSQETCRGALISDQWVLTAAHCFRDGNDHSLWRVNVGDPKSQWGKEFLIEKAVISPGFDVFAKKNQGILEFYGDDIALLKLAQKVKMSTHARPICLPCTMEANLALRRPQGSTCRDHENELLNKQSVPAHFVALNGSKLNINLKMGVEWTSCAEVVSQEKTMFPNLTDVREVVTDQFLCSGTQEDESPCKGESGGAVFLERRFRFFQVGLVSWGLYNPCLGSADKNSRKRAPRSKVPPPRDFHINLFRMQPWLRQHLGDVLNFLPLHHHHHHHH

The target of the next assay is T2, human C2 M316A (human, UniProt P06681 21-752).
T2 sequence: T1 sequence with A252I, M296A

For another assay, the target named is T3, human C2 T317A (human, UniProt P06681 21-752).
T3 sequence: T1 sequence with A252I, T297A

Another assay concerns the target T4, human C2 A436S (human, UniProt P06681 21-752).
T4 sequence: T1 sequence with A252I, A416S

Positions count from the first letter of the chain named.

B1: RF16-242 (antibody, human IgG4 S228P, lambda, V domains shown)
VH: EVQLLQSGAEVKKPGESLKISCKGSGYSFTSYWIGWVRQMPGKGLEWMGIIYPGDSDTRYSPSFQGQVTISADKSISTAYLQWSSLKASDTAMYYCARRGHYGDYFDYWGQGTLVTVSS
VL: SYELTQPPSVSVSPGQTARITCSGDALPKKYAYWYHQKSGQAPVLVIYEDRRRPSEIPERFSGSSSGTMATLTITGAQVEDEGVYFCYSRDRAGNQRVFGGGTQLTVLG
notes: pH-dependent anti-C2 antibody from a phage display library
Turning to B1, the Kd (in general, the concentration at which binding is half-saturated) with human C2 I272A was found to be 10.3 nM; in the assay with human C2 M316A, 10.1 nM; with human C2 T317A, 5.9 nM; with human C2 A436S, 4.9 nM.
